# Source: patent US10513713B2, “Modified host cells having tolerance to α-olefins” (priority 2014, dated 2019)
# Positions count from the first letter of the chain named. In names and notes the source's numbering stands.
# B1: A279T: E. coli AcrB (SEQ ID NO:1) variant with amino acid mutation A279T (protein)
# chain: MPNFFIDRPIFAWVIAIIIMLAGGLAILKLPVAQYPTIAPPAVTISASYPGADAKTVQDTVTQVIEQNMNGIDNLMYMSSNSDSTGTVQITLTFESGTDADIAQVQVQNKLQLAMPLLPQEVQQQGVSVEKSSSSFLMVVGVINTDGTMTQEDISDYVAANMKDAISRTSGVGDVQLFGSQYAMRIWMNPNELNKFQLTPVDVITAIKAQNAQVAAGQLGGTPPVKGQQLNASIIAQTRLTSTEEFGKILLKVNQDGSRVLLRDVAKIELGGENYDIITEFNGQPASGLGIKLATGANALDTAAAIRAELAKMEPFFPSGLKIVYPYDTTPFVKISIHEVVKTLVEAIILVFLVMYLFLQNFRATLIPTIAVPVVLLGTFAVLAAFGFSINTLTMFGMVLAIGLLVDDAIVVVENVERVMAEEGLPPKEATRKSMGQIQGALVGIAMVLSAVFVPMAFFGGSTGAIYRQFSITIVSAMALSVLVALILTPALCATMLKPIAKGDHGEGKKGFFGWFNRMFEKSTHHYTDSVGGILRSTGRYLVLYLIIVVGMAYLFVRLPSSFLPDEDQGVFMTMVQLPAGATQERTQKVLNEVTHYYLTKEKNNVESVFAVNGFGFAGRGQNTGIAFVSLKDWADRPGEENKVEAITMRATRAFSQIKDAMVFAFNLPAIVELGTATGFDFELIDQAGLGHEKLTQARNQLLAEAAKHPDMLTSVRPNGLEDTPQFKIDIDQEKAQALGVSINDINTTLGAAWGGSYVNDFIDRGRVKKVYVMSEAKYRMLPDDIGDWYVRAADGQMVPFSAFSSSRWEYGSPRLERYNGLPSMEILGQAAPGKSTGEAMELMEQLASKLPTGVGYDWTGMSYQERLSGNQAPSLYAISLIVVFLCLAALYESWSIPFSVMLVVPLGVIGALLAATFRGLTNDVYFQVGLLTTIGLSAKNAILIVEFAKDLMDKEGKGLIEATLDAVRMRLRPILMTSLAFILGVMPLVISTGAGSGAQNAVGTGVMGGMVTATVLAIFFVPVFFVVVRRRFSRKNEDIEHSHTVDHH
# modifications: E. coli
# B2: L822P: E. coli AcrB (SEQ ID NO:1) variant with amino acid mutation L822P (protein)
# chain: B1 chain with T279A, L822P
# modifications: E. coli
# B3: F617L: E. coli AcrB (SEQ ID NO:1) variant with amino acid mutation F617L (protein)
# chain: B1 chain with T279A, F617L
# modifications: E. coli
# B4: F1033Y: E. coli AcrB (SEQ ID NO:1) variant with amino acid mutation F1033Y (protein)
# chain: B1 chain with T279A, F1033Y
# modifications: E. coli
# B5: F927S: E. coli AcrB (SEQ ID NO:1) variant with amino acid mutation F927S (protein)
# chain: B1 chain with T279A, F927S
# modifications: E. coli
# B6: TolC: outer membrane protein TolC encoded on plasmid pTolCa (protein, UniProt P02930 23-493, looked up)
# Outer membrane protein TolC: ENLMQVYQQARLSNPELRKSAADRDAAFEKINEARSPLLPQLGLGADYTYSNGYRDANGINSNATSASLQLTQSIFDMSKWRALTLQEKAAGIQDVTYQTDQQTLILNTATAYFNVLNAIDVLSYTQAQKEAIYRQLDQTTQRFNVGLVAITDVQNARAQYDTVLANEVTARNNLDNAVEQLRQITGNYYPELAALNVENFKTDKPQPVNALLKEAEKRNLSLLQARLSQDLAREQIRQAQDGHLPTLDLTASTGISDTSYSGSKTRGAAGTQYDDSNMGQNKVGLSFSLPIYQGGMVNSQVKQAQYNFVGASEQLESAHRSVVQTVRSSFNNINASISSINAYKQAVVSAQSSLDAMEAGYSVGTRTIVDVLDATTTLYNAKQELANARYNYLINQLNIKSALGTLNEQDLLALNNALSKPVSTNPENVAPQTPEQNAIADGYAPDSPAPVVQQTSARTTTSNGHNPFRN
# Tested on: E. coli K12
# Test: microbe, parasite or virus in culture
# Format: cell-based
# Details: Escherichia coli, K12, 2 h, read-out: toxic dose (concentration of compound that decreased growth by half)
# Description: A: The olefin compounds were added to different concentrations as indicated to an E. coli K12 culture at an OD600=0.2. OD was monitored after 2 hour at 37° C. The bars represent standard deviation between duplicates B: A survival test in presence of 1-octene was performed. Six different dilutions of a culture (10 cells to 10^7 cells, left to right) of E. coli K12 were spotted in triplicate on an agar plate. […] Plates were incubated at room temperature for 2 days and then opened to allow evaporation of the olefin.
# In this example, toxicity of olefin compounds was evaluated. A toxic dose was defined as the concentration of compound that decreased growth by half.
row,Molecule,IC50 [µg/mL]
1,C=Cc1ccccc1 [styrene],110
2,C=CCCCC [1-hexene],65

# Tested on: E. coli K12 ΔacrAB
# Test: Survival assay on agar plate in olefin saturated atmosphere, strains producing AcrAB or AcrB variants
# Format: cell-based
# Details: 1-hexene saturated atmosphere
# Description: FIG. 2: impact of AcrAB production on growth, in presence of styrene 1-hexene, 1-octene and 1-nonene on cell growth. A: Different concentrations of styrene were added to an OD600=0.2 culture of E. coli K12 ΔacrAB containing the pABc (white) or the control plasmid p0c (black). OD density was monitored after 2 hours of growth at 37° C. The bars represent standard deviation between duplicates. B: A survival test in presence of 1-hexene, 1-octene, or 1-nonene saturated atmosphere was performed. Six different dilutions of cultures (10 cells to 10^7 cells, left to right on the figure) were spotted in triplicate on an agar plates. Plates were then exposed to the aforementioned chemicals.
# FIG. 4: Impact of beneficial mutations on AcrB on tolerance to 1-hexene, A: Survival test of E. coli strain producing either the AcrB wild type or variants in a 1-hexene saturated atmosphere was performed. Two dilutions of cultures (Dilution 1: 10^5 cells and Dilution 2: 10^4 cells) were spotted in triplicate on an agar plate. B: Localization of the 6 beneficial mutations represented on the structure of a single monomer of AcrB or C: on the structure of the AcrB trimer.
# FIG. 6: Impact of beneficial mutations on AcrB on tolerance to 1-hexene. A: Survival test of E. coli strain producing either the AcrB Wild type or variants with 1, 2 or several beneficial mutations, in an 1-hexene saturated atmosphere was performed. Two dilutions of cultures (Dilution 2: 10^4 cells and Dilution 3: 10^3 cells) were spotted in triplicate on an agar plate. B: Soluble fraction of total proteins from a culture of strains producing either the wild type, either the variant F617L, either the variant 6 (A279T, Q584R, F617L) were analyzed by western blot using anti-His antibody.
# For agar plate based assays, cells were first streaked overnight and few colonies were used to inoculate a preculture of 6 mL of LB-Cm with glucose (2 g/L) and arabinose (5 mM). At OD60=1 at 37° C., the cultures were used to prepare a dilution series. Dilution 0 (D0) corresponds to the OD600, =1, and contains ˜10^9 cells/mL. Dilution 1 (D1) is a 10-fold dilution of D0, dilution 2 (D2) a 10-fold dilution of D1 up to dilution 5 (D5), which contains ˜10^4 cells/mL. 10 μL of each dilution was spotted in triplicate on LB-agar plates (single well plates, Thermo Scientific, Waltham, Mass.) containing 30 mL of LB-agar, Cm (30 mg/L), glucose (2 g/L) and arabinose (5 mM). Small containers (microfuge tube lids) were placed on the open lid of the agar plate and filled with 400 to 600 μL of 1-hexene or 1-octene or with 75 μL of 1-nonene. The agar plates were then inverted over the lid, cells facing the olefin compound, sealed with parafilm, placed in the plastic bag (the original packaging for the petri dishes) and incubated for 2 days at room temperature. For 1-octene, a second condition, via overlaying 2 mL of compound on the top of the agar submerging the cells, was used. TolC overexpression impact was examined using the same method, but in this case, the LB media and the LB-agar were also supplemented with ampicillin (100 mg/L) and IPTG (100 μM). […]
row,Molecule,efficiency among the beneficial mutations
1,B1,more efficient
2,B2,more efficient
3,B3,more efficient

# Same assay, conditions: single mutation AcrB variants, 1-hexene saturated atmosphere, FIG. 4A
row,Molecule,tolerance to 1-hexene relative to wild type AcrB sequence
1,B1,improvement in tolerance
2,B4,improvement in tolerance
3,B2,improvement in tolerance
4,B3,improvement in tolerance
5,B5,improvement in tolerance

# Tested on: E. coli K12 wild type
# Test: Survival test in 1-hexene saturated atmosphere on over-production of AcrA, AcrB and TolC
# Format: cell-based
# Details: FIG. 3
# Description: Six different dilutions of cultures (10 cells to 10^7 cells, left to right on the picture) were spotted in triplicate on an agar plate.
# For agar plate based assays, cells were first streaked overnight and few colonies were used to inoculate a preculture of 6 mL of LB-Cm with glucose (2 g/L) and arabinose (5 mM). At OD60=1 at 37° C., the cultures were used to prepare a dilution series. Dilution 0 (D0) corresponds to the OD600, =1, and contains ˜10^9 cells/mL. Dilution 1 (D1) is a 10-fold dilution of D0, dilution 2 (D2) a 10-fold dilution of D1 up to dilution 5 (D5), which contains ˜10^4 cells/mL. 10 μL of each dilution was spotted in triplicate on LB-agar plates (single well plates, Thermo Scientific, Waltham, Mass.) containing 30 mL of LB-agar, Cm (30 mg/L), glucose (2 g/L) and arabinose (5 mM). […] The agar plates were then inverted over the lid, cells facing the olefin compound, sealed with parafilm, placed in the plastic bag (the original packaging for the petri dishes) and incubated for 2 days at room temperature. For 1-octene, a second condition, via overlaying 2 mL of compound on the top of the agar submerging the cells, was used. TolC overexpression impact was examined using the same method, but in this case, the LB media and the LB-agar were also supplemented with ampicillin (100 mg/L) and IPTG (100 μM).
row,Molecule,tolerance to 1-hexene on over-expression in the wild type strain
1,"acrA and acrB and TolC: E. coli tripartite RND efflux pump AcrAB-TolC, over-expressed from pABc and pTolCa",increased tolerance
2,B6,does not improve the survival
